We go through one molecule from PMC10437922, “DNAJB3 attenuates ER stress through direct interaction with AKT” (PLOS ONE, 2023).

The target of this test is T1, His-AKT1 (human, UniProt P31749 1-480).
T1 construct: 'human' stands only before DNAJB3; also called pH6K-AKT1; source: E. coli BL21 (DE3), purified (Ni-NTA, gel filtration Superdex 200)
In words: ITC; DNAJB3 (250 uM, syringe) titrated into 20 uM protein in the cell; 25°C; 25 mM Tris-HCl pH 8.0, 150 mM NaCl, 1 mM DTT; one-site binding model. The note with it: both partners purified.

T1 sequence (P31749 whole entry): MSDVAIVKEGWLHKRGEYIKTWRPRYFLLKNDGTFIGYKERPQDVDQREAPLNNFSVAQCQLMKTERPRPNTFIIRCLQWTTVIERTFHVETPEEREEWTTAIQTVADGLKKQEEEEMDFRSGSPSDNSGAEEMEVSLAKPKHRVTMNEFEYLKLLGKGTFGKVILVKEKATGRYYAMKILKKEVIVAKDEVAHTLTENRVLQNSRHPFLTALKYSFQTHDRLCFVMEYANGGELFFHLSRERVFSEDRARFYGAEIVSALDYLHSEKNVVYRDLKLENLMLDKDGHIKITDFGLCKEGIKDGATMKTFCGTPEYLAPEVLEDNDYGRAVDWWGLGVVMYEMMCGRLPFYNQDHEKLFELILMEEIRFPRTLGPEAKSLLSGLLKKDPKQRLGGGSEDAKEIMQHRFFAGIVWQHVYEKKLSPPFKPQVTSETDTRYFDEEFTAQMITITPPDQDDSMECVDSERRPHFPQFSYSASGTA

B1: His-DNAJB3 (natural protein)
chain: not shown
notes: 6xHIS residues'; also called hDNAJB3; pH6K-DNAJB3; source: E. coli BL21 (DE3), purified (Ni-NTA, gel filtration Superdex 200)
By Kd is commonly meant the equilibrium constant for the complex coming apart. Low readings indicate higher affinity, high ones lower affinity. For orientation: stoichiometry N means a count of units in the complex or per binding partner. In the case of B1, the Kd was approximately 62 µM and the “stoichiometry N” value is 0.84.
